{"source": "paper PMC10015101", "assay_in_all_cases": "SEC", "key": {"[1]": {"molecular_target": "BM48-31 soluble spike ectodomain, stabilised (2P, GSAS linker, T4 fibritin trimerization motif) (bat sarbecovirus BM48-31 | bacteriophage T4)"}, "[2]": {"molecular_target": "BtKY72 soluble spike ectodomain, stabilised (2P, GSAS linker, T4 fibritin trimerization motif) (bat sarbecovirus BtKY72 | bacteriophage T4)"}, "[3]": {"molecular_target": "Pang17 soluble spike ectodomain, stabilised (2P, GSAS linker, T4 fibritin trimerization motif) (pangolin sarbecovirus pang17 | bacteriophage T4)"}, "[4]": {"molecular_target": "RaTG13 soluble spike ectodomain, stabilised (2P, GSAS linker, T4 fibritin trimerization motif) (bat sarbecovirus RaTG13 | bacteriophage T4)"}, "[5]": {"molecular_target": "RmYN02 soluble spike ectodomain, stabilised (2P, GSAS linker, T4 fibritin trimerization motif) (bat sarbecovirus RmYN02 | bacteriophage T4)"}, "[6]": {"molecular_target": "Rs4081 soluble spike ectodomain, stabilised (2P, GSAS linker, T4 fibritin trimerization motif) (bat sarbecovirus RS4081 | bacteriophage T4)"}, "[7]": {"molecular_target": "RsSHC014 soluble spike ectodomain, stabilised (2P, GSAS linker, T4 fibritin trimerization motif) (bat sarbecovirus RsSHC014 | bacteriophage T4) (UniProt U5WLK5)"}, "[8]": {"molecular_target": "WIV1 soluble spike ectodomain, stabilised (2P, GSAS linker, T4 fibritin trimerization motif) (bat sarbecovirus WIV1 | bacteriophage T4) (UniProt U5WI05)"}, "[9]": {"molecular_target": "Yun11 soluble spike ectodomain, stabilised (2P, GSAS linker, T4 fibritin trimerization motif) (sarbecovirus Yun11 | bacteriophage T4)"}}, "data": [{"substance": "BM48-31 soluble spike ectodomain, stabilised (2P, GSAS linker, T4 fibritin trimerization motif) (domain or fragment)", "values": [{"measurement": "stoichiometry N", "setting": "[1]", "value": 3}]}, {"substance": "BtKY72 soluble spike ectodomain, stabilised (2P, GSAS linker, T4 fibritin trimerization motif) (domain or fragment)", "values": [{"measurement": "stoichiometry N", "setting": "[2]", "value": 3}]}, {"substance": "Pang17 soluble spike ectodomain, stabilised (2P, GSAS linker, T4 fibritin trimerization motif) (domain or fragment)", "values": [{"measurement": "stoichiometry N", "setting": "[3]", "value": 3}]}, {"substance": "RaTG13 soluble spike ectodomain, stabilised (2P, GSAS linker, T4 fibritin trimerization motif) (domain or fragment)", "values": [{"measurement": "stoichiometry N", "setting": "[4]", "value": 3}]}, {"substance": "RmYN02 soluble spike ectodomain, stabilised (2P, GSAS linker, T4 fibritin trimerization motif) (domain or fragment)", "values": [{"measurement": "stoichiometry N", "setting": "[5]", "value": 3}]}, {"substance": "Rs4081 soluble spike ectodomain, stabilised (2P, GSAS linker, T4 fibritin trimerization motif) (domain or fragment)", "values": [{"measurement": "stoichiometry N", "setting": "[6]", "value": 3}]}, {"substance": "RsSHC014 soluble spike ectodomain, stabilised (2P, GSAS linker, T4 fibritin trimerization motif) (from UniProt U5WLK5 1-1191) (domain or fragment)", "values": [{"measurement": "stoichiometry N", "setting": "[7]", "value": 3}]}, {"substance": "WIV1 soluble spike ectodomain, stabilised (2P, GSAS linker, T4 fibritin trimerization motif) (from UniProt U5WI05 1-1191) (domain or fragment)", "values": [{"measurement": "stoichiometry N", "setting": "[8]", "value": 3}]}, {"substance": "Yun11 soluble spike ectodomain, stabilised (2P, GSAS linker, T4 fibritin trimerization motif) (domain or fragment)", "values": [{"measurement": "stoichiometry N", "setting": "[9]", "value": 3}]}]}
